Test results from patent publication US20260152767A1 (TRUSTEES OF COLUMBIA UNIVERSITY IN THE CITY OF NEW YORK, published 2026).

B1: Allomuricauda taeanensis (Ata) rpoE-associated nuclease-dead Cas12f (other)
chain: MGKSTLKHTRKIQILIDLPTKDEKKEVMDMMYQWRDRCFRAANIIVTHLYVQEMIKDFFYLSEGIKYKLADEKKDEKGILQRSRMNTTYRVVSDRFKGEMPTNILSTLNHGLISSFNKNRVQYWKGERSLPNFKKDMAFPFGLQGISRLVYDEEKKAFCFRLYRVPFKTYLGKDFTDKRMLLERLVKGDVKLCASNIQLNGGKIFWLAVFEIEKEKHSLKPEVIAEASLSLEYPIVVKTGKNRLTIGTKEEFLYRRLAIQAARRRTQVGATYSRSGKGKKRKLKAVDKYHKTESNYVAHRIHVYSRKLIDFCIKHQAGTLILMNQEDKVGIAKEEEFVLRNWSYYELMTKIKYKAEKAGIELIIG
notes: Untagged dCas12f, co-expressed in E. coli with its gRNA from the Ata plasmid in which the FLAG tag sits on RpoE or on HTH; also called Ata dCas12f; AtadCas12f
B2: Allomuricauda taeanensis (Ata) sigma factor E RpoE with N-terminal 3xFLAG tag (other)
chain: MLYSDFELLKIGDTSALDHIHAKYFRSILWIGRQWLNDDFLIESLVQDTFLKLWVNRDKLESPEHIFYFLRFVMKRECISYYRKPKYKFHKKVNSLEDYDNYQDYMVGYDPVNDSENLDEQESTQKSFDHIKSILPLLNADKRHLIELCLKYGFQYKAISKVMGKGIHETSREIKEAIEDIKTIVHKGNELGSNDTMTNEIKFSGELSEEQAKVLKMRCDLKYSFSEIAKELELSEKEVHQEFMKAYKLMKANHQLQLQSA
notes: Expressed in E. coli together with dCas12f, HTH and gRNA; also called FLAG-RpoE; Ata RpoE; not shown: N-terminal 3xFLAG tag

Experiments:
[1] = target: B2; test: summary of the ChIP-seq and ChIP-qPCR data on the Ata system in E. coli
[2] = target: B1; test: ChIP-seq (anti-FLAG) of N-terminally 3xFLAG-tagged Ata RpoE in E. coli co-expressing Ata dCas12f and gRNAs retargeted to four genomic sites
Experimental: After conjugating, the antibody-magnetic beads were added to the sonication supernatant and incubated at 4° C. for 12-16 h. Then, the magnetic beads were washed and immunoprecipitated protein bound to crosslinked DNA was eluted. Reverse-crosslinking was performed at 65° C. overnight. Samples were treated with RNase A (Thermo Fisher Scientific) and proteinase K (Thermo Fisher Scientific) and purified using QIAquick spin columns (QIAGEN). ChIP-sequencing libraries were generated using the NEBNext Ultra II DNA Library Prep Kit for Illumina (NEB). Size selection (˜450 bp fragment size) was performed using AMPure XP Beads (Beckman Coulter) and samples were sequenced using the Illumina NextSeq 500 platform in paired-end mode with 75 cycles per end. Sequencing reads were mapped to the E. coli K-12 genome (GenBank NC_000913.3) using bowtie2 and normalized using deepTools bamCoverage and visualized in IGV using counts per million (CPM). […]
Re-programmability of gRNAs for RNA-guided DNA-targeting of dCas12f and RpoE To test whether the gRNA and TAM were correctly determined by RIP-seq and ChIP-seq, new guide sequences were cloned for one representative system (here, Ata), targeting 4 different DNA sites tiled across the E. coli K-12 genome. […]

Row | Binder | binding result [1] | binding result [2]
1 | B1 | binds | 
2 | B2 |  | binds
